Source: patent US20130326645

Legend:
Test in all cases: cell_activity
ZFN 25689 (synthetic) = details: pair 25688/25689, maize
ZFN 29732 (synthetic) = details: pair 29732/29730, donor pDAS000152 10:1, A-genome (B 6306, D 7911), wheat SEC protoplasts
ZFN 29730 (synthetic) = details: pair 29732/29730, donor pDAS000152 10:1, A-genome (B 6306, D 7911), wheat SEC protoplasts
ZFN 25717 (synthetic) = details: pair 25716/25717, maize; text states 380 times control
ZFN 25687 (synthetic) = details: pair 25686/25687, maize
ZFN 25712 (synthetic) = details: pair 25712/25713, maize
ZFN 25686 (synthetic) = details: pair 25686/25687, maize
ZFN 25716 (synthetic) = details: pair 25716/25717, maize; text states 380 times control
ZFN 25713 (synthetic) = details: pair 25712/25713, maize
ZFN 25688 (synthetic) = details: pair 25688/25689, maize

For “TGGCAGTGGCAGTGGCACTGGCACGGCA (double strand) [25689 site]”, the activity (% of IPPK2 ZFN activity) (ZFN 25689 (synthetic)) was 108.

“GATCCCAAGCGGTGGTGCTTTCAAGGAC (double strand) [29732 site]” gave an activity (ppm NHEJ editing) (ZFN 29732 (synthetic)) of 6720.

Sequence “AGGCAGCACGTGCTCCTGATGCGGGACT (double strand) [29730 site]” has an activity (ppm NHEJ editing) (ZFN 29730 (synthetic)) of 6720.

Sequence “CGGAAGCGGATGGCCCGCTTCTTTAGAA (double strand) [25717 site]” has an activity (% of IPPK2 ZFN activity as printed) (ZFN 25717 (synthetic)) of 380.

In the case of “GATAGGTGGCAGTGGCAGTGGCACTGGC (double strand) [25687 site]”, the activity (% of IPPK2 ZFN activity) (ZFN 25687 (synthetic)) is reported as 32.

“ATCGGGCATCGGCGACTGATGAGCCTTG (double strand) [25712 site]” was tested, and the activity (% of IPPK2 ZFN activity) (ZFN 25712 (synthetic)) was 69.

“CACAACAAGACTGCGGGTTCGGTGGCGC (double strand) [25686 site]” was tested, and the activity (% of IPPK2 ZFN activity) (ZFN 25686 (synthetic)) was 32.

With “TGATCGCATCGGGCATCGGCGACTGATG (double strand) [25716 site]” the activity (% of IPPK2 ZFN activity as printed) (ZFN 25716 (synthetic)) was 380.

With “GATCAACGGAAGCGGATGGCCCGCTTCT (double strand) [25713 site]” the activity (% of IPPK2 ZFN activity) (ZFN 25713 (synthetic)) was 69.

In the case of “TATCGGCACAACAAGACTGCGGGTTCGG (double strand) [25688 site]”, the activity (% of IPPK2 ZFN activity) (ZFN 25688 (synthetic)) is reported as 108.
